Test results reported in the DeepSol protein solubility set.

Assay: soluble on expression in E. coli; label from the status in PepcDB or PDB records

| Sequence | soluble on expression in E. coli |
| --- | --- |
| MLQFYRNLGKSGLRVSCLGLGTWVTFGGQITDEMAEHLMTLAYDNGINLFDTAEVYAAGKAEVVLGNIIKKKGWRRSSLVITTKIFWGGKAETERGLSRKHIIEGLKASLERLQLEYVDVVFANRPDPNTPMEETVRAMTHVINQGMAMYWGTSRWSSMEIMEAYSVARQFNLIPPICEQAEYHMFQREKVEVQLPELFHKIGVGAMTWSPLACGIVSGKYDSGIPPYSRASLKGYQWLKDKILSEEGRRQQAKLKELQAIAERLGCTLPQLAIAWCLRNEGVSSVLLGASNAEQLMENIGAIQVLPKLSSSIVHEIDSILGNKPYS | soluble |
| MGSDKIHHHHHHMTTDNAKAQLTSSSGGNIIVVSNRLPVTITKNSSTGQYEYAMSSGGLVTALEGLKKTYTFKWFGWPGLEIPDDEKDQVRKDLLEKFNAVPIFLSDEIADLHYNGFSNSILWPLFHYHPGEINFDENAWLAYNEANQTFTNEIAKTMNHNDLIWVHDYHLMLVPEMLRVKIHEKQLQNVKVGWFLHTPFPSSEIYRILPVRQEILKGVLSCDLVGFHTYDYARHFLSSVQRVLNVNTLPNGVEYQGRFVNVGAFPIGIDVDKFTDGLKKESVQKRIQQLKETFKGCKIIVGVDRLDYIKGVPQKLHAMEVFLNEHPEWRGKVVLVQVAVPSRGDVEEYQYLRSVVNELVGRINGQFGTVEFVPIHFMHKSIPFEELISLYAVSDVCLVSSTRDGMNLVSYEYIACQEEKKGSLILSEFTGAAQSLNGAIIVNPWNTDDLSDAINEALTLPDVKKEVNWEKLYKYISKYTSAFWGENFVHELYSTSSSSTSSSATKN | not soluble |
| NKDMSFTVRGNYTFSQNIIDYYEENKLPYDYLSVTGKPFNILRGYIAEGLFSSKEEINTSADQSGFGRIRPGDIKYRDVNGDGIINDDDKVPLSYSNQLPRVMYGFGADFHWKDLTLSFLFKGSAKVDYYRSGLGNDAGWIPFYNGELGNVIKLANNPKNRWTPAWYSGTTATENPHAEFPRLSYGGNTNNSQLSSFWKRNGSFLRFQELSLKYNLKTPWIKKTGLSSVDLEFVANNLFTIDKVKYFDPEQASANGAAYPIPATYTFQVYLKF | not soluble |
| MGSDKIHHHHHHMRIYDPFRKKWIEEEIETPFPSKGLVATFPFVDLHVHVRLNGGEDYSSLEEASLVGGFFKVVVQPNTKPLIDSKEVLERHLDLSKNRAVEFLFAVSPFGSIEAEGERVVGFSTDGIEYDYPTLVETMKKKKKALWFDHSQMYEVDGIFYEGAPLPFQKRPRSNEAIAIARTVLTGLEYGFERFHIQHVTTKYSVEVISFLKNLAKVSCEVTPHHLFFCYEDIKNTNFKINPPLGSPEDRRALIEAVKKDVIDVLATDHAPHHEKPDDFLTAPYGSTSIEIAFPAYYTALGDLELVVKKLTKKPLEVLGVEARLTEDTLVFIDPEAEFIVDAKKFKSKGKNSMFDGVRLKGKVVALKLKGRWVMIDGEVIADQKEND | not soluble |
| MQEEVNQKVISLSIQGVKITASVLKAALRKFLEMDNRRKQKATQVKMAEKTGRAQEKGREKARKKIEKKKPHGKQTIKQLNAQGVQLSNLKITDENVKSFDRVARKYGIDYSLKKEVGADPPKYLVFFKAKDVDVMTAAFREYAGVELKKKQVKKPSVRKKLQKSVERKAKNRQRVKQRQKSRGQER | not soluble |
| MVSSDVPKTQRALIFESYGGPLEIKQLPIPQPNEDELLVKMEYSGICHSDVHTWLGDFHYVSKCPMIGGHEGAGSVISVGSKVKNWQIGDKVGIKLVQGNCLNCEYCQTGHEPLCPHVWNIGVQKYGTFQEYATIRDVDAIKIPKSMNMAAAAPVLCGGVTAYKALKESEVKSGQIVAVTGAGGGLGSFAIQYARAMGMRVVAEDIVAHIREITDGGAHGVVNFAAAKVPMEKALEYVRKRGTVVFVGLAKDSKILVDTIPLIFNAVKIKGSIVGSRLDVNEAMDFVARGAVNVPLELVKLEDVAEVYTKMHDGKINSRVVVDFSL | not soluble |
| MSLKNIVFDFGGVIVDIDRDKAVQAFIKLGLADADTRLDKYHQTGIFQELEEGKLSADEFRKQLGDLCGRELTMEETKQAWLGFFNEVDLRKLDYILGLRKSYHVYLLSNTNPFVMSWACSPEFSSEGKPLNDYCDKLYLSYQLGHTKPAPEIFDFMIKDSHVIPSETLFVDDGSSNIHIGKELGFETFQPENGADWRQELTVILNSEGHHHHHH | soluble |
| AHHHHHHGSKAMEFVGYKKSGKTTCVENVAKVLKKEKGYRVAIAKSMHSNFDKEETDTWKFSRIADYVIVHAQDIDGLLFKAKDVNALFSMVSADILLIEGFKSITHVPKVICAKSEEEVRELNNGLAIAVSGVIANKGIKEIDGLPVINATKEPEKLAELVEKKGFMLPNIDCGLCGYNCAEMAKLIVKGEKTVKDCVVLSSTPKVTIKIDGQVLPLKDWVQELVEKTIKGMLSAMKGYREGRKIEIVIKE | soluble |
| MAHHHHHHMAWTCSALSNASMIQNLERAALLSTPAIIASLQRVDRGWFVPDGMRSSAYRDEPLSLGHGATISAPHMHAIMLELLSPFLLSTPGSLPKAVLDIGSGSGYLTAILADICGDGSRVVGVEHVVELQERSLKVVLQHFPSWVNEGRITFINGDGRDISKLFHPHTAMFDVIHVGAAAASVPKDYLEAIKPGGCLVIPVGKENEVQHLHLYTKDEKGTITKKTHGGVSFVPLTSLRHQKNRS | soluble |
| MAHHHHHHMNEEILKNIKVNNNFLEFEEIIKDINTPFNFIDLVEIPCVPVVDLYGLSLLNNEAYLEYKSGLREDKLNADDEIKLTLFFAVKLYKKNIIRIKFPSYYDIIETLKFDPVSVTIGLFNQFYFETAYELCNLLPINEWPSTNFYDILRKAEKTRIHFLINNKTKLNSYFLEGLTNKEKKIYKYFLEGTSKEREKLNKETTLFHFYEKEKC | not soluble |
| MVNQPLVSIIIPAYRAENTIAFTVRSVLAQTYDHWQVAIGVDDQVDYLQLLAEQGINDPRLKQVFTGGIGSGEAIARNKAVSICDGDILANLDADDAFASDRLEKLVPLAEKYGVAIDNTGVYNSELVLYKQPFPQRQALNFATAADILSPRIPFFPVFQRQLLGDGWTKVPFAADVLFNLELLSRTEKVAIHPEPLYRYYKRDNSITQSANAFETAEKAYLTILSLLDEGALTLTDAIRQAARQEFSENLALNKVFRRYMEEGRCQNLEQFLDMTNNGQKIEFVSNLNLEHHHHHH | soluble |
| MATKRDYYEILGLSKDSSVEDIKKTYRKLALQYHPDRNKEPGAEEKFKEISEAYAVLSDAEKRAQYDRFGHAGIDNQYSAEDIFRGADFGGFGDIFEMFFGGGRRGGPMGPRRGSDLQYDLYVTFEEAAFGVRKDIDIPRTERCSTCSGTGAKPGTSPKRCPNCGGTGQVRTTRSTLGMQFVSTTTCSACHGRGQVVESPCPTCSGAGRVRSRRKMSVNVPAGADSGMTLRLSGEGDAGEPGAPSGDLYIIVHVMEHKYFKRVDYDVISELPISFTQAALGADIMVDTLYGKVKMNIPSGTQTHSVFRLKDKGIQRLQGHGKGDQLVRVIIRTPTKLTQEQKDLLHQFEYLSNGKKPEAEERSRSDKQKSEKPRKSKGLFEKVKDAFES | not soluble |
| MHFKTKLKNRRSEVNTCLCIGLDPDEDDIKNFMKNEEQNGYKNIKNNMNSNNNGIENIIKIGKEILLTDGENIQNLSEEDKFFYFFNHFCFYIINNTKEYALVYKMNFAFYIPYGSVGINALKNVFDYLNSMNIPTMLDMKINDIGNTVKNYRKFIFEYLKSDSCTINVYMGTNMLKDICFDYEKNKYYSAYVLIKTTNKDSFIFQNELSINDKQAYIVMADETQKMATELKIEQNNEFIGFVVGSNAFEEMKIIRNKFPDSYILSPGIGAQNGDLYKTLKNGYNKDYEKLLINVGRAITKSPDPKKSSESYYNQIIQIFKDIENGDNIEQV | soluble |
| MNIQALINDKVSQALEAAGAPAGSPAAVRQSAKPQFGDYQANGVMGVAKKLGTNPREFAQKVLDVLDLDGIASKTEIAGPGFINIFLSEEFLAKQADAALADSR | not soluble |
| MNTYFDIPHRLVGKALYESYYDHFGQMDILSDGSLYLIYRRATEHVGGSDGRVVFSKLEGGIWSAPTIVAQAGGQDFRDVAGGTMPSGRIVAASTVYETGEVKVYVSDDSGVTWVHKFTLARGGADYNFAHGKSFQVGARYVIPLYAATGVNYELKWLESSDGGETWGEGSTIYSGNTPYNETSYLPVGDGVILAVARVGSGAGGALRQFISLDDGGTWTDQGNVTAQNGDSTDILVAPSLSYIYSEGGTPHVVLLYTNRTTHFCYYRTILLARAVAGSSGWTERVPAYSAPAASGYTSQVVLGGRRILGNLFRETSSTTSGAYQFEVYLGGVPDFESDWFSVSSNSLYTLSHGLQRSPRRVVVEFARSSSPSTWNIVMPSYFNDGGHKGSGAQVEVGSLNIRLGTGAAVWGTGYFGGIDNSATTRLATGYYRVRAWI | soluble |
| MDQFVNHLSCTALLVGKKASVDGSTMIARNEDASGGINPKRFIVVQPADQPQRYVSTFNGFQLDLPQTPLQYTCTPVADQSHGTWGEAGINSENVAMSATETEFTNTTMLGLDPLEPDGIGEEAMLTVVLPYIHNAREGVERLGELVTKYGTCESNGIAFSDANEIWYFETVGGHHWAAERIPDDRYVLAPNQTGIQEIDFQAPEHYKYSADLKDFAAKYHLNKAKEGFNFRDIFGEDTQADHYYNTPRVWYAQKMLNPEIDQDPESRTMPFSRVPSHLISVEDVAMVLSSHYQATDFDPYGQTGTPETRRRYRPIGMNRNQEMHILQIRPNMPKSHAAIHWLAEGVNIFNSPVPFFANCTTTPENFQYTPIDKSSTDSFYWLNKLIAMVADPLFAEHDWDAEFAVSESRKFGFAAGRAAVAKGDAAFADVKPEDLPAWHDALNAETAATITNDLQYLLHQLVCIRAEKMTPSFEKGGELLEHHHHHH | not soluble |
| MDHFIKLLPKLTPHLRKGDCGKMGVIGGSLEYTGAPYFAASSASRLGADLIHIFCDPDAAQVIKGYSPDLIVHPGMTANSIIPKLSRMDAIVIGPGLGRNPNIWPLMQELFEFVRNRDVPFVIDGDGLWFVSEHIEKFPRQMSATVLTPNIVEFSRLCKSALGEEDVLNVRNNSQLQHLAAELSRKMNVTIYLKGEVDLVVTPNGEVSKCSTESSLRRCGGQGDVTAGSLGLFLYWAKKNLGDDWTSAHHEAGIASSWLVRTAGRRAFEKHGRSMNTPLLLDEIPKLVRDVETREMKDTVHTDSSKH | not soluble |
| GHMSTPLTLIATITAAPGHAEALERELRALVAPSRAEAGCLQYDLHQDRHDSHLFYMIEQWRDDAALERHQNTEHFLRFSRGNEALLQNVKIDQLYRLA | soluble |
| MKTDRLLADTKTIRYEETDLASLISAPYHFRCGIYLICTQGEAVVSTGVQKYIFNEQTELIFLTGGLLQVLETSGDLQVKMLMFPKEAFLNAMLPIDTPYFNYTHEHPCYHHTADERSQKTWRQINLWMDMAQMLFTEPMPQFRGQQEHNFLQSLLMWLFNTIPEKLAVSKQYSRTQLLCHRFMQLIREYSMHEHQVAFYAEKLCISSRYLHKITVRHLDGKKPKQLIDEQLVAEIKVLLNEPRLSVTEIAEQLHFPDQSYLTHFFKKNTGISPKEFRAIKNLG | not soluble |
| MAHHHHHHMGGVRGGRNKSHKLPVKFMAAAKQELVNSRLTLQEELLHSAFDDHSAYRMRITGLKQQNLDLSFTVSELEEQVRDLYTYIHEKRFARQVDEQGNEIAVMTPRPRGVPLALQTELGIDLRHSTANILSELSTLSINMKHQLNSALLRARQLHTLSAWLDEGNETSVSGGGVGGMLERVSEAAAIPVFPVSAWPSIPHFLRTFIAPDVPNYFWTETQAACILYNFFKRYKAIRRRARFVRDNKMLAPRVYQLFEHREVLLTRLDAGKEDVAAAEENTPFGYVVTQFAREVLANLSPQNTQPHLPLVLPGTVALRFPQTSSTPSQSKSLQSGERRG | not soluble |
| QVQLLESGAVLARPGTSVKISCKASGFNIKDYYMHWVKQRPGQGLEWIGGNDPANGHSMYDPKFQGRVTITADTSTSTVFMELSSLRSEDTAVYYCARDSGYAMDYWGQGTLVTVSSASTKGPSVFPLAPCSRSTSESTAALGCLVKDYFPEPVTVSWNSGALTSGVHTFPAVLQSSGLYSLSSVVTVPSSSLGTKTYTCNVDHKPSNTKVDKRVES | soluble |
